Patent publication US20260103719

Key:
[1] = target: SlSuSy3^S11A (SuSy3 protein with the serine at position 11 mutated to alanine)
[2] = target: SuSy3-HIS protein (tomato sucrose synthase SuSy3, Solyc07g042550.2.1, His-tagged, expressed in vitro and purified)
SuSy3-HIS protein (tomato sucrose synthase SuSy3, Solyc07g042550.2.1, His-tagged, expressed in vitro and purified), sequence (chain, as listed by the source): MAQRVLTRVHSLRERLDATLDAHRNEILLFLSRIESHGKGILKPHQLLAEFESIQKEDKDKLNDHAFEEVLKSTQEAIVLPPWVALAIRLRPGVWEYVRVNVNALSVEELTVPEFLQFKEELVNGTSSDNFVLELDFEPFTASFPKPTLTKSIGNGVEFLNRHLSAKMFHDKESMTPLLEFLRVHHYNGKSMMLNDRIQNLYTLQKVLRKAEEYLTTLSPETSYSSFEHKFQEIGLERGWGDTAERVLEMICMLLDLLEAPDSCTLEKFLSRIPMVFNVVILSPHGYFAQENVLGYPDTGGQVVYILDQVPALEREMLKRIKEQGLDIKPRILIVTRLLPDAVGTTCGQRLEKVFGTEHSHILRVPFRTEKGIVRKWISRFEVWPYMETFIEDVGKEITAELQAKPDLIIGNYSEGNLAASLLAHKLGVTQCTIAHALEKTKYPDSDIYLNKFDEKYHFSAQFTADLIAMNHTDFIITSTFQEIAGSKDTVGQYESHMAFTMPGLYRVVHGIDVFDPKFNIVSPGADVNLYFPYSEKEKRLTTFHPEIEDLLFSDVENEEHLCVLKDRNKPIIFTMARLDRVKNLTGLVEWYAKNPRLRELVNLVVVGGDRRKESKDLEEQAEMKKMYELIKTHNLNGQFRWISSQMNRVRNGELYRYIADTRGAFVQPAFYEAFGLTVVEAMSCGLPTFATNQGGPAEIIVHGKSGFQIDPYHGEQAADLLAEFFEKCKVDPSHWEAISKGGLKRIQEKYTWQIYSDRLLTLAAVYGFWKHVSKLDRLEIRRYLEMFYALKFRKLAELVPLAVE

SlSuSy3^S11A (SuSy3 protein with the serine at position 11 mutated to alanine), sequence (chain, as listed by the source S11A): as the sequence (chain, as listed by the source) above, with S11A counted along it

| Protein | in vitro phosphorylation assay (autoradiography) [1] | in vitro phosphorylation (gamma-32P-ATP, SDS-PAGE, autoradiography) [2] | in vitro phosphorylation assay (autoradiography) [2] | mass spectrometry of phosphorylated residues after co-incubation [2] |
| --- | --- | --- | --- | --- |
| CDPK8-HIS protein (tomato calcium-dependent protein kinase 8, Solyc11g065660, His-tagged, expressed in vitro and purified) (protein) MGNCCGTPGNSSENKKKKNKPNPFALDYGATQASGGDGNKLVVLKDPTGHNIQEKYDLGCELGRGEFGVTYLCTDVDTGDKYACKSISKKKLRTAVDIDDVRREVEIMKHLPKHPNIVTLKDTYEDDNAVHIVMELCEGGELFDRIVARGHYTERAAAVIMKTIVEVVQMCHMHGVMHRDLKPENFLFGNKKETAPLKAIDFGLSVFFKPGERFNEIVGSPYYMAPEVLKRNYGPEVDVWSAGVILYILLCGVPPFWAETEQGVAQAIIRSVVDFKRDPWPKVSDNAKDLVKKMLDPDPTRRLTAQQVLEHTWLQNIKKAPNVSLGETVKARLKQFSVMNKLKKRALTIMAEFLSAEEVAGMKDAFDMMDTGKKGKINLGELKNGLQKLGHQIPDVDLQILMEAADVDGDGSLNYGEFVAVSVHLRKMANDEHLHKAFSVFDRDQSGYIEIEELRSALSDEDGGNSEEVINAIMHDVDTDKDGRISYEEFAAMMKAGTDWRKASRQYSRERFNSLSLKLMRDGSIQVGKEEGR | there is no autoradiographic band, indicating that CDPK8 cannot phosphorylate SISuSy3^S11A | the CDPK8 protein itself has kinase activity and can phosphorylate the SuSy3 protein | CDPK8 can phosphorylate the serine at position 11 (S11) of the SuSy3 protein | 14 amino acid residues on the SuSy3 protein can be phosphorylated by CDPK8 protein, and the sites are T7, S11, T19, S152, S165, S174, T176, S191, S219, S360, T430, S535, T543, and S706 in sequence |
| mCDPK8-His protein without kinase activity (CDPK8 lacking two key amino acids) (protein) MGNCCGTPGNSSENKKKKNKPNPFALDYGATQASGGDGNKLVVLKDPTGHNIQEKYDLGCERGEFGVTYLCTDVDTGDKYACKSISKKKLRTAVDIDDVRREVEIMKHLPKHPNIVTLKDTYEDDNAVHIVMELCEGGELFDRIVARGHYTERAAAVIMKTIVEVVQMCHMHGVMHRDLKPENFLFGNKKETAPLKAIDFGLSVFFKPGERFNEIVGSPYYMAPEVLKRNYGPEVDVWSAGVILYILLCGVPPFWAETEQGVAQAIIRSVVDFKRDPWPKVSDNAKDLVKKMLDPDPTRRLTAQQVLEHTWLQNIKKAPNVSLGETVKARLKQFSVMNKLKKRALTIMAEFLSAEEVAGMKDAFDMMDTGKKGKINLGELKNGLQKLGHQIPDVDLQILMEAADVDGDGSLNYGEFVAVSVHLRKMANDEHLHKAFSVFDRDQSGYIEIEELRSALSDEDGGNSEEVINAIMHDVDTDKDGRISYEEFAAMMKAGTDWRKASRQYSRERFNSLSLKLMRDGSIQVGKEEGR | – | the mCDPK8 protein lacking two key amino acids has no kinase activity and cannot phosphorylate the SuSy3 protein | – | – |
